Reference: IntAct's records for PubMed 20181956

B1: Trinucleotide repeat-containing gene 6C protein (Homo sapiens), Q9HCJ0 (parent)
chain: MEEKKKKKQEEKKKKEGAQKKAADQKTKVPEPTKTCSSQPQPAGTSTSTSTSTISSSNNGKRASASGQQPAASRYLPREVPPRFRQQEQKQLLKRGQPLPTGTLTSVSPTQGAGPAGVSPPPLPGAGTQHHPSKLQPDLSHSGLADHYENSHWGQQPTYRSEANCSWDKVIIDRTDKEAWPSITGTETESASECTTDTDSASNCGSENSSMATGSAQGNFTGHTKKTNGNNGTNGALVQSPSNQSALGAGGANSNGSAARVWGVATGSSSGLAHCSVSGGDGKMDTMIGDGRSQNCWGASNSNAGINLNLNPNANPAAWPVLGHEGTVATGNPSSICSPVSAIGQNMGNQNGNPTGTLGAWGNLLPQESTEPQTSTSQNVSFSAQPQNLNTDGPNNTNPMNSSPNPINAMQTNGLPNWGMAVGMGAIIPPHLQGLPGANGSSVSQVSGGSAEGISNSVWGLSPGNPATGNSNSGFSQGNGDTVNSALSAKQNGSSSAVQKEGSGGNAWDSGPPAGPGILAWGRGSGNNGVGNIHSGAWGHPSRSTSNGVNGEWGKPPNQHSNSDINGKGSTGWESPSVTSQNPTVQPGGEHMNSWAKAASSGTTASEGSSDGSGNHNEGSTGREGTGEGRRRDKGIIDQGHIQLPRNDLDPRVLSNTGWGQTPVKQNTAWEFEESPRSERKNDNGTEAWGCAATQASNSGGKNDGSIMNSTNTSSVSGWVNAPPAAVPANTGWGDSNNKAPSGPGVWGDSISSTAVSTAAAAKSGHAWSGAANQEDKSPTWGEPPKPKSQHWGDGQRSNPAWSAGGGDWADSSSVLGHLGDGKKNGSGWDADSNRSGSGWNDTTRSGNSGWGNSTNTKANPGTNWGETLKPGPQQNWASKPQDNNVSNWGGAASVKQTGTGWIGGPVPVKQKDSSEATGWEEPSPPSIRRKMEIDDGTSAWGDPSNYNNKTVNMWDRNNPVIQSSTTTNTTTTTTTTTSNTTHRVETPPPHQAGTQLNRSPLLGPVSSGWGEMPNVHSKTENSWGEPSSPSTLVDNGTAAWGKPPSSGSGWGDHPAEPPVAFGRAGAPVAASALCKPASKSMQEGWGSGGDEMNLSTSQWEDEEGDVWNNAASQESTSSCSSWGNAPKKGLQKGMKTSGKQDEAWIMSRLIKQLTDMGFPREPAEEALKSNNMNLDQAMSALLEKKVDVDKRGLGVTDHNGMAAKPLGCRPPISKESSVDRPTFLDKDGGLVEEPTPSPFLPSPSLKLPLSHSALPSQALGGIASGLGMQNLNSSRQIPSGNLGMFGNSGAAQARTMQQPPQPPVQPLNSSQPSLRAQVPQFLSPQVQAQLLQFAAKNIGLNPALLTSPINPQHMTMLNQLYQLQLAYQRLQIQQQMLQAQRNVSGSMRQQEQQVARTITNLQQQIQQHQRQLAQALLVKQPPPPPPPPHLSLHPSAGKSAMDSFPSHPQTPGLPDLQTKEQQSSPNTFAPYPLAGLNPNMNVNSMDMTGGLSVKDPSQSQSRLPQWTHPNSMDNLPSAASPLEQNPSKHGAIPGGLSIGPPGKSSIDDSYGRYDLIQNSESPASPPVAVPHSWSRAKSDSDKISNGSSINWPPEFHPGVPWKGLQNIDPENDPDVTPGSVPTGPTINTTIQDVNRYLLKSGGSSPPSSQNATLPSSSAWPLSASGYSSSFSSIASAPSVAGKLSDIKSTWSSGPTSHTQASLSHELWKVPRNSTAPTRPPPGLTNPKPSSTWGASPLGWTSSYSSGSAWSTDTSGRTSSWLVLRNLTPQIDGSTLRTLCLQHGPLITFHLNLTQGNAVVRYSSKEEAAKAQKSLHMCVLGNTTILAEFAGEEEVNRFLAQGQALPPTSSWQSSSASSQPRLSAAGSSHGLVRSDAGHWNAPCLGGKGSSELLWGGVPQYSSSLWGPPSADDSRVIGSPTPLTTLLPGDLLSGESL

Variants of: B1
Conditions: with pabp1_human PABPC1, P11940
pabp1_human PABPC1, P11940, sequence (P11940 whole entry): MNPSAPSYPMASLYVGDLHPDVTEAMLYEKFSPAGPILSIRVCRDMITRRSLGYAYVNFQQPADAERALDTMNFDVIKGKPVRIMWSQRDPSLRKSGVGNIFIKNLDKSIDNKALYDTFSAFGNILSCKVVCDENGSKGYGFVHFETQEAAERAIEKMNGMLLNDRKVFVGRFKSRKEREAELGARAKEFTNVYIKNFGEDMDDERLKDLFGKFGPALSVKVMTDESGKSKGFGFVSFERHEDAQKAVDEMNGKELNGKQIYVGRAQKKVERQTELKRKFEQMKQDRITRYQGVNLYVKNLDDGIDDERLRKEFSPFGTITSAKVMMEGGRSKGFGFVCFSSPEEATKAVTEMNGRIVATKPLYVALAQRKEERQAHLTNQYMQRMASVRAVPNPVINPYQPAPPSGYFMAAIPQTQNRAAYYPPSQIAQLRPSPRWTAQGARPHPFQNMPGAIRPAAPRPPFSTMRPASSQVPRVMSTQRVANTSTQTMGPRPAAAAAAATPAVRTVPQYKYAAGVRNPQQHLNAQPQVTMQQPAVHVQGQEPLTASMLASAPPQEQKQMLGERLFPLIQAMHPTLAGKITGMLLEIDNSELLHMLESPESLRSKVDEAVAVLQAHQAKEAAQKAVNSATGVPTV

effect of a mutation on the interaction	Variant
decreasing interaction	W1592A
disrupting interaction	F1596A
decreasing interaction	P1593A
decreasing interaction	P1601A

Variants of: B1
Conditions: with pabp1_human PABPC1, P11940
Remark: another data set of the same source

effect of a mutation on the interaction	Variant
decreasing interaction	G1599A
decreasing interaction	W1602A
